# From the DeepSol protein solubility set
# Assay: soluble on expression in E. coli; label from the status in PepcDB or PDB records
row,Sequence,soluble on expression in E. coli
1,MGSDKIHHHHHHMERMALHFEILENGKVKCLLCPHECVLDNGQIGLCGVRKNKNGSLVSLNYGEVTAIAMDPIEKKPLFHFNPGEQIFSVGTFGCNFKCGFCQNWEISQAKPETKRVTPEQLVKIAQMNRNSKGIAFTYNEPLVWYEFVLDTSRVAVREGMYCVLVTNGFINEEPLELLFQSVHAMNIDLKGFNRDFYREIGGDLDVVLRNIEKVYNAGIHVELTTLIIPGKNDDKEDLRREFEWIADLDKDIPLHISRYFPNYKYTIPPTPIEELIEIYEMAREYLNFVYLGNVWDERYESTFCPDCGNLVIRRQGYEVEKVGLDEEGKCTKCGRQIATIIG,not soluble
2,SNAMPQQKNFVTMPAQHQNKQPGIESLMNPLPQFEDPNYKGSEKLKGKNVLITGGDSGIGRAVSIAFAKEGANIAIAYLDEEGDANETKQYVEKEGVKCVLLPGDLSDEQHCKDIVQETVRQLGSLNILVNNVAQQYPQQGLEYITAEQLEKTFRINIFSYFHVTKAALSHLKQGDVIINTASIVAYEGNETLIDYSATKGAIVAFTRSLSQSLVQKGIRVNGVAPGPIWTPLIPSSFDEKKVSQFGSNVPMQRPGQPYELAPAYVYLASSDSSYVTGQMIHVNGGVIVNG,soluble
3,RSFGLIIPDLENTSYARLAKLIEQNSRKAGYQILIGCSDDDPETEKKVAEALISRRIDALFVASGMPSANEYYLKLQNSGTPVIALDRPMDDEHFCCVISEDFDAAFELTESVLSPEIKTIGLIGALQDLQVSKERELGFRSACQKDDTAMTVGYGLHFSREEGKKVLDKWVQADSLPDAIVTTSYTLLEGVLDVMLEKPELMSQVRLATFGDNRLLDFLPVKINSLPQQFELIADSAMELALNASAKRYKPGVELIPRKIVKRQ,not soluble
4,MGSDKIHHHHHHAAQARLDKARAMYENNEFFGAKNEIDSIRALYPKEVKVLKQGLTLMRQVEVKEAERNIAFCDSLLPIKLEEVEGLKKGFAFEKDSVYEEIGNYIWKQQTIERNVQRCYVRCGVNEEGEMYLASVYYGGRPIEHTGIKLSLKDGQFAETASIPYDGGLNYRFKDMGSTTEVVTYKGEHCVDAVKFIYDNEKERIKVEYTGGKPYIIYMADADKKAIVNTFNLATVLSDIKSMNTLKEKSEKKIAYLKNKLEE,not soluble
5,MGHHHHHHSHMDKQSSAGGVKRSVPCDSNEANEMMPETPTGDSDPQPAPKKMKTSESSTILVVRYRRNFKRTSPEELLNDHARENRINPLQMEEEEFMEIMVEIPAK,not soluble
6,MNNNDIEYNAPSEIKYIDVVNTYDLEEEASKVVPHGGFNYIAGASGDEWTKRANDRAWKHKLLYPRLAQDVEAPDTSTEILGHKIKAPFIMAPIAAHGLAHTTKEAGTARAVSEFGTIMSISAYSGATFEEISEGLNGGPRWFQIYMAKDDQQNRDILDEAKSDGATAIILTADSTVSGNRDRDVKNKFVYPFGMPIVQRYLRGTAEGMSLNNIYGASKQKISPRDIEEIAGHSGLPVFVKGIQHPEDADMAIKRGASGIWVSNHGARQLYEAPGSFDTLPAIAERVNKRVPIVFDSGVRRGEHVAKALASGADVVALGRPVLFGLALGGWQGAYSVLDYFQKDLTRVMQLTGSQNVEDLKGLDLFDNPYGYEY,soluble
7,MSRAKAAPVAGPEVAANRAGRQARIVAILSSAQVRSQNELAALLAAEGIEVTQATLSRDLEELGAVKLRGADGGTGIYVVPEDGSPVRGVSGGTDRMARLLGELLVSTDDSGNLAVLRTPPGAAHYLASAIDRAALPQVVGTIAGDDTILVVAREPTTGAQLAGMFENLR,soluble
8,MAHHHHHHMRTDKCVSEAVQTFREAQNLLPTLYTHLSALENIMTQKGALVGAARRREQCFAKALPASHFLCMDTGTEERTLPQATTAGPSCVHTTSPVMTSPLGVLAAFSASTVHHLVAQHQRDVEELLGVVSRITQRSWSQKVEQLKSKIAQLERASEVGETPEHPPSAGGIVAVSSTPASSSYFATASELSVALYGFAACLLKMGNVLQETMLALRKDARLSLMAHAAPGSAALLTSTSADTASHLAAMLAREDRTSEGMSLLPMHSSHCGSLHEATSASSPFSGAAGVQAAPLQPMRLVDAVGKLKSFLEARWKSCCDSYLAPESHLLLALV,soluble
9,MSLKDLVVGMELGYPPFEMSDKTGKASGISVDFLEAFAKKNGYKLVVKNIAWDGLIPALKTAKIDLIMSSMTITDKRKKVVDFSIPYAKANLAILTPLNSDITNIKDLDKKGKVLALKRGSTGHLYAVKNLKNATINLFDKENAAILEVIQGKADGFFYDQLTIYRTWQKHQDTTRAILAPFQENPEFWGIAVRKGDEALKDKLDNFIDESRKNGFLDFLGNKYLKDIKEGHHHHHH,soluble
